Assay results published in PMC3215855 (Developmental cell, 2011).

T1: LRP6(3-4) (human, UniProt O75581 630-1246, N-linked carbohydrate at five predicted sites)
T1 sequence: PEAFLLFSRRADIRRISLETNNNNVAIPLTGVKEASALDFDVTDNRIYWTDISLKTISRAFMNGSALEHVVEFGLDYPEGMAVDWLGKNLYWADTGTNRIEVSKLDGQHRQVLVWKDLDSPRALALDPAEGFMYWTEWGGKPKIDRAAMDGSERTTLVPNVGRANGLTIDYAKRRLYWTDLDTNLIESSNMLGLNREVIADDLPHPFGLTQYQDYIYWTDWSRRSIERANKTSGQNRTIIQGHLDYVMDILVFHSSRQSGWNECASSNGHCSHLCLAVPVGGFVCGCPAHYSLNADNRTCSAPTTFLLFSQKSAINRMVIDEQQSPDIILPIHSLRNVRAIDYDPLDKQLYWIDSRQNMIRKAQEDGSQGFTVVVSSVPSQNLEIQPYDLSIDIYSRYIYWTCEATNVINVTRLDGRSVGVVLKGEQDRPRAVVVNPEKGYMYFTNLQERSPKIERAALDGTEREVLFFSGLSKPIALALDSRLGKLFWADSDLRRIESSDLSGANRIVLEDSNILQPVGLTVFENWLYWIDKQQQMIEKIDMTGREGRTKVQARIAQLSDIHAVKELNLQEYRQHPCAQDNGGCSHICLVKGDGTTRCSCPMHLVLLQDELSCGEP


Molecular target: T1, LRP6(3-4)
Assay: ITC

Kd	stoichiometry N	Binder
67 nM	–	full-length Dkk1 (ligand, human, UniProt O94907 32-266, looked up, one N-linked carbohydrate site) TLNSVLNSNAIKNLPPPLGGAAGHPGSAVSAAPGILYPGGNKYQTIDNYQPYPCAEDEECGTDEYCASPTRGGDAGVQICLACRKRRKRCMRHAMCCPGNYCKNGICVSSDQNHFRGEIEETITESFGNDHSTLDGYSRRTTLSSKMYHTKGQEGSVCLRSSDCASGLCCARHFWSKICKPVLKEGQVCTKHRRKGSHGLEIFQRCYCGEGLSCRIQKDHHQASNSSRLHTCQRH
–	1	Dkk1_C (domain or fragment, human, UniProt O94907 178-266, looked up) MYHTKGQEGSVCLRSSDCASGLCCARHFWSKICKPVLKEGQVCTKHRRKGSHGLEIFQRCYCGEGLSCRIQKDHHQASNSSRLHTCQRH
